T1: hAng2
T1 chain: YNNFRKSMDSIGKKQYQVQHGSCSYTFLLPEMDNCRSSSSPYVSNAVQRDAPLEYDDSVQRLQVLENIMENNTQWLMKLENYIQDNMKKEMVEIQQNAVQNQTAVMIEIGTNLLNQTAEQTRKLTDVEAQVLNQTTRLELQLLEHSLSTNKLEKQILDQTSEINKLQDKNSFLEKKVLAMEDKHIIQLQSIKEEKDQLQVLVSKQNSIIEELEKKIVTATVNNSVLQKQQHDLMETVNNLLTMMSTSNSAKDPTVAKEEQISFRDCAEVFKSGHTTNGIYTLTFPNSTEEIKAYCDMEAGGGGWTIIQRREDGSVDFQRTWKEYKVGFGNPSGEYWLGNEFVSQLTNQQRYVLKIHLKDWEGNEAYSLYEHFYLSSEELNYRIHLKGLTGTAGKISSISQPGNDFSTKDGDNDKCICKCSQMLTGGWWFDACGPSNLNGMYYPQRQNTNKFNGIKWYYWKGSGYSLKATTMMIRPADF

T2: mAng2
T2 construct: may be the same protein as m22 (mouse Ang2-FLD); also called mouse Ang2
T2 chain: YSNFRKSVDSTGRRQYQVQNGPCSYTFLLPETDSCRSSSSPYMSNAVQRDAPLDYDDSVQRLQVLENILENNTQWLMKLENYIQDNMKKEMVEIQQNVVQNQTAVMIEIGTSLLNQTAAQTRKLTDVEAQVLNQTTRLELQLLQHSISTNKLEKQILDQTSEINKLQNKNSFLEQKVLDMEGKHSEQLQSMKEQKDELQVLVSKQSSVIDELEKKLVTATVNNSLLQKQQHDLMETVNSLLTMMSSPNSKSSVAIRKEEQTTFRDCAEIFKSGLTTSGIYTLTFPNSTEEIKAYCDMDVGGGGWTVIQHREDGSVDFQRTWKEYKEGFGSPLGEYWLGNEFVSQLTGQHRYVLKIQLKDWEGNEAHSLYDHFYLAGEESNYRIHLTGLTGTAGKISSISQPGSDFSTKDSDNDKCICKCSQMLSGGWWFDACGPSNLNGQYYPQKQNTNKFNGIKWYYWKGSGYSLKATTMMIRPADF

T3: hAng2
T3 construct: also called human Ang2
T3 chain: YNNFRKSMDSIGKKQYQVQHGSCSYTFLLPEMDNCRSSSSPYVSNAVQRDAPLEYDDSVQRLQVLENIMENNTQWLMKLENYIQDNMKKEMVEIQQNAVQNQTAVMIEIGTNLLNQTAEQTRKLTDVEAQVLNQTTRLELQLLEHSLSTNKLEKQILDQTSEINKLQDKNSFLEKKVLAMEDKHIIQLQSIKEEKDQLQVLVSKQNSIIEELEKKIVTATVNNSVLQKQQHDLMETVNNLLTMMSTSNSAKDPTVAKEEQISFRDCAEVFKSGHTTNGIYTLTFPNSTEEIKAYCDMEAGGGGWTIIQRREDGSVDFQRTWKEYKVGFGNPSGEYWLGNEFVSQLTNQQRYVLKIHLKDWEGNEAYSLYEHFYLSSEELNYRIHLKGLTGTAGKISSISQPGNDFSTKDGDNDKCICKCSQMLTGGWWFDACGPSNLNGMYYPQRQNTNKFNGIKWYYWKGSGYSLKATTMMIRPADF

T4: mAng2
T4 construct: also called mouse Ang2
T4 chain: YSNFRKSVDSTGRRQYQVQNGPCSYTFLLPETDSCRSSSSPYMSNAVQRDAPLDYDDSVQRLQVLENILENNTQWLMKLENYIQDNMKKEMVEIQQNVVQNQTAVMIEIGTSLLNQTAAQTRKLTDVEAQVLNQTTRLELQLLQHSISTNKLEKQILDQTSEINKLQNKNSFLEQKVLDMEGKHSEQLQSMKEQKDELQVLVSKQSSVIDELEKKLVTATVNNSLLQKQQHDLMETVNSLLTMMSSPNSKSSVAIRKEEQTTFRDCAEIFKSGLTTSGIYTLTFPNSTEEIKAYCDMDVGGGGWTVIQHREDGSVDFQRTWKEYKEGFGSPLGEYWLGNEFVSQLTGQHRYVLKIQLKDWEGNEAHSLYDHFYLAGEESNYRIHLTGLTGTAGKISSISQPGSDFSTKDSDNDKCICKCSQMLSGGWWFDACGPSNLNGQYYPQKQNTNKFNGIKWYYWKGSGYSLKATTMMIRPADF

T5: hAng2
T5 construct: also called human Ang2
T5 chain: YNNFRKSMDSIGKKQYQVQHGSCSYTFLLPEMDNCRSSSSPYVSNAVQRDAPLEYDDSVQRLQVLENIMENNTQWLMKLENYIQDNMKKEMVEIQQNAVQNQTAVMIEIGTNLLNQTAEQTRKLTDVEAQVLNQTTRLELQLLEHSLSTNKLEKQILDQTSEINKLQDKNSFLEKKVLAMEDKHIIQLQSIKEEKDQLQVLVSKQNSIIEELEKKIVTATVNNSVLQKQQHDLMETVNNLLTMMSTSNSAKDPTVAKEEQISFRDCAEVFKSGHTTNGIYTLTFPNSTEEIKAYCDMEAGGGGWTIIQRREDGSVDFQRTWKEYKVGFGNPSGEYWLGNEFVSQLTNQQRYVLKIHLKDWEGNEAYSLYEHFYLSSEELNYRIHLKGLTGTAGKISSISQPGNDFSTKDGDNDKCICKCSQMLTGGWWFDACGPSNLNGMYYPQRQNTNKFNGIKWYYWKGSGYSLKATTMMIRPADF


Legend:
hAng2 [1] = target: T1, hAng2; test: cell-based or functional assay
hAng2 [2] = target: T1, hAng2; test: competition ELISA, blocking of hAng2 binding to hTie2-Fc
cAng2 [3] = target: T6, cAng2 (cynomolgus monkey); test: competition ELISA, blocking of cAng2 binding to cTie2-Fc
T6 construct: may be the same protein as m21 (cyno Ang2-FLD); also called cyno Ang2

mAng2 [4] = target: T2, mAng2; test: competition ELISA, blocking of mAng2 binding to mTie2-Fc
hAng2 [5] = target: T3, hAng2; test: competition ELISA, blocking of hAng2 binding to hTie2
mAng2 [6] = target: T4, mAng2; test: competition ELISA, blocking of mAng2 binding to mTie2
cAng2 [7] = target: T7, cAng2 (cynomolgus monkey); test: competition ELISA, blocking of cAng2 binding to cTie2
T7 construct: also called cyno Ang2

human VEGFR2-Fc chimera = target: T8, human VEGFR2-Fc chimera (human, UniProt P35968 20-764); test: binding ELISA on coated human VEGF121
T8 construct: bought (R&D Systems); also called hVEGFR2-Fc; VEGFR2-huFc
Description: Binding to recombinant human VEGF121 is assessed via a solid phase binding ELISA. Briefly, recombinant human VEGF121 (R&D Systems, Minneapolis, Minn., USA) is coated overnight at 4° C. at 1 μg/mL in a 96-well MaxiSorp plate (Nunc, Wiesbaden, Germany). Wells are blocked with a casein solution (1% in PBS).

hAng2 [8] = target: T5, hAng2; test: competition ELISA hAng2/hTie2-Fc; blocked: hTie2-Fc
Description: The human assay is also performed after incubation of the VHH with 0.5 μM human serum albumin. Additionally, a hAng2 mediated HUVEC survival assay is performed (see Example 5.5; FIG. 29).

T8 sequence (P35968 20-764, change not shown): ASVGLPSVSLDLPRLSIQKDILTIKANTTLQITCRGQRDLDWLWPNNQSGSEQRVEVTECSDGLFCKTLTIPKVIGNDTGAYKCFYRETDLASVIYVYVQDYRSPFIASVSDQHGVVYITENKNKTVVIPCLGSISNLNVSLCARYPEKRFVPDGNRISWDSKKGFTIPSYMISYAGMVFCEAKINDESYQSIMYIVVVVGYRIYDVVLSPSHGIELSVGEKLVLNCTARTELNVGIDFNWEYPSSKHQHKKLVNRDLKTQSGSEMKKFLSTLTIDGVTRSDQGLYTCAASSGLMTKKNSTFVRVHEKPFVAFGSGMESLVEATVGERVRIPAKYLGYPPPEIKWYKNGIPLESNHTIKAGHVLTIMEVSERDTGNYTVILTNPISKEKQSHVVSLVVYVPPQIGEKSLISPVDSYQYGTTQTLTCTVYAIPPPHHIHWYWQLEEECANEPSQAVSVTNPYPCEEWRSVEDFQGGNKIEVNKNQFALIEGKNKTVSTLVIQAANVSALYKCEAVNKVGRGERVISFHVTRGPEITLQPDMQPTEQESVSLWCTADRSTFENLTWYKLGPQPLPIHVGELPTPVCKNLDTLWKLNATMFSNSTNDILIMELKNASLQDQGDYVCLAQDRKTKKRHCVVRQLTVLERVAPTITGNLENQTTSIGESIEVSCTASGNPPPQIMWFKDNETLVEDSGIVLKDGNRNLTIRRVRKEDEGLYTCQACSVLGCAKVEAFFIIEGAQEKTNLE

Binder | IC50 (read off the curve) (hAng2 [5]) [nM] | IC50 (read off the curve) (mAng2 [6]) [nM] | IC50 (read off the curve) (cAng2 [7]) [nM] | also measured
00938 (VHH) VHH: EVQLVESGGGLVQPGGSLRLSCAVSGITLDDYAIGWFRQAPGKEREGVSAIRSSGGSTYYADSVKGRFTISSDNSKNTVYLQMNSLRPEDTAVYYCAAVPAGRLRYGEQWYPIYEYDAWGQGTLVTVSS |  |  |  | IC50 (read off the curve), hAng2 mediated HUVEC survival (hAng2 [1]): ~5 nM; IC50 (read off the curve) (hAng2 [2]): ~0.04 nM; IC50 (read off the curve) (cAng2 [3]): ~0.09 nM; IC50 (read off the curve) (mAng2 [4]): ~0.05 nM
1D01 (VHH, also called 01D01) VHH: EVQLVESGGGLVQAGGSLRLSCAASGFTFDDYALGWFRQAAGKEREGVSCIRCSDGSTYYADSVKGRFTISSDNAKNTVYLQMNSLKPEDTAVYYCAASIVPRSKLEPYEYDAWGQGTQVTVSS | ~10 | ~20 | ~8 | 
ANGBII00001 (VHH, homodimeric anti-Ang2 VHH; also called 1D01-9gs-1D01) bivalent VHH: EVQLVESGGGLVQAGGSLRLSCAASGFTFDDYALGWFRQAAGKEREGVSCIRCSDGSTYYADSVKGRFTISSDNAKNTVYLQMNSLKPEDTAVYYCAASIVPRSKLEPYEYDAWGQGTLVTVSSGGGGSGGGSEVQLVESGGGLVQAGGSLRLSCAASGFTFDDYALGWFRQAAGKEREGVSCIRCSDGSTYYADSVKGRFTISSDNAKNTVYLQMNSLKPEDTAVYYCAASIVPRSKLEPYEYDAWGQGTLVTVSS | ~0.01 | ~0.02 | ~0.03 | 
recombinant human VEGF121 (ligand, UniProt P15692-9 27-147, looked up, also called rhVEGF121; hVEGF121) APMAEGGGQNHHEVVKFMDVYQRSYCHPIETLVDIFQEYPDEIEYIFKPSCVPLMRCGGCCNDEGLECVPTEESNITMQIMRIKPHQGQHIGEMSFLQHNKCECRPKKDRARQEKCDKPRR |  |  |  | binding result (human VEGFR2-Fc chimera): binds
7G08 (VHH) VHH: EVQLVESGGGLVQPGGSLRLSCAASGFALDYYAIGWFRQVPGKEREGVSCISSSDGITYYVDSVKGRFTISRDNAKNTVYLQMNSLKPEDTAVYYCATDSGGYIDYDCMGLGYDYWGQGTQVTVSS |  |  |  | IC50 (read off the curve) (hAng2 [8]): ~0.1 nM

— patent US20170247475A1 (Boehringer Ingelheim, published 2017)
